The values below come from EP4671273A1 (Anaveon AG, dated 2025).

To fix the notation:
B1: ZAP122 (antibody, human IgG1, V domains shown)
VH: QVQLQESGPGLVKPSETLSLTCTVSGGSISSDFWGWIRQPPGKGLEWIGYISSRGSTNYNPSLKRRVTISVDTSRNQFSLKLSSVTAADTAVYYCARSAGVTDFDFWGQGTLVTVSS
VL: DIQMTQSPSSVSASVGDRVTITCRASQGISSWLAWYQHKPGKAPKLLIYVASSLQSGVPSRFSGSGSGTDFTLTISSLQPEDFATYYCQQANSFPLTFGGGTKVEIK
B2: LKK631 (antibody, human IgG1, V domains shown)
VH: EVQLQQFGAEVVKPGASVKMSCKASGYTFTDYNMNWVKQSHEKSLEWIGDIHPKFHSTNYNQKFKGKATLTIDTSSSTAYMELRNLTSEDTAVYYCARVGNYVYFVMDYWGQGTSVTVSS
VL: SIVMTQTPKFLLVSAGDRVTITCKASQSVSNDVAWYQQKPGQSPKLLIYYASNRYTGVPDRFSGSGYGTDFTFTISTVQAEDLAVYFCQQDYTSPWTFGGGTKLEIK
B3: MIZ926 (antibody, human IgG1, V domains shown)
VH: EVQLVESGGGSVKPGGSLKLSCAASGLTFSHYYMYWVRQTPEKRLEWVAIISDGGDYTHYSDSVKGRFTISRDNAKNNLYLQMSSLQSEDTAMYYCAGDYGYGYEGWFAYWGQGTLVTVST
VL: DIVMTQSQKFMSTSVGDRVSVTCKASQNVDTYVAWYQQKPGQSPKALIYSTSYRYSGVPDRFTGSGSGTDFTLTISNVQSEDLAEYFCQQYNSYPWTFGGGTKLEIK
B4: ZAP122p1 Fab (Fab, V domains shown)
VH: QVQLQESGPGLVKPSETLSLTCTVSGGSISSDFWGWIRQPPGKGLEWIGYISSRGSTNYNPSLKRRVTISVDTSRNQFSLKLSSVTAADTAVYYCARSAGVTDFDFWGQGTLVTVSS
VL: DIQMTQSPSSVSASVGDRVTITCRASQGISSWLAWYQHKPGKAPKLLIYVASSLQSGVPSRFSGSGSGTDFTLTISSLQPEDFATYYCQQAQSFPLTFGGGTKVEIK
notes: Fab
B5: ZAP122m21 Fab (Fab, V domains shown)
VH: QVQLQESGPGLVKPSETLSLTCTVSGGSISSDFWGWIRQPPGKGLEWIGYISSRGSTNYNPSLKRRVTISVDTSRNQFSLKLSSVTAADTAVYYCARSAAVTDFDFWGQGTLVTVSS
VL: DIQMTQSPSSVSASVGDRVTITCRASQGISSWLAWYQHKPGKAPKLLIYVASSLQSGVPSRFSGSGSGTDFTLTISSLQPEDFATYYCQQANSFPLTFGGGTKVEIK
notes: Fab
B6: ZAP122m20 Fab (Fab, V domains shown)
VH: QVQLQESGPGLVKPSETLSLTCTVSGGSISSDFWGWIRQPPGKGLEWIGYISSRGSTNYNPSLKRRVTISVDTSRNQFSLKLSSVTAADTAVYYCARAAGVTDFDFWGQGTLVTVSS
VL: DIQMTQSPSSVSASVGDRVTITCRASQGISSWLAWYQHKPGKAPKLLIYVASSLQSGVPSRFSGSGSGTDFTLTISSLQPEDFATYYCQQANSFPLTFGGGTKVEIK
notes: Fab
B7: ZAP122m24 Fab (Fab, V domains shown)
VH: QVQLQESGPGLVKPSETLSLTCTVSGGSISSDFWGWIRQPPGKGLEWIGYISSRGSTNYNPSLKRRVTISVDTSRNQFSLKLSSVTAADTAVYYCARSAGVTAFDFWGQGTLVTVSS
VL: DIQMTQSPSSVSASVGDRVTITCRASQGISSWLAWYQHKPGKAPKLLIYVASSLQSGVPSRFSGSGSGTDFTLTISSLQPEDFATYYCQQANSFPLTFGGGTKVEIK
notes: Fab
B8: ZAP122m22 Fab (Fab, V domains shown)
VH: QVQLQESGPGLVKPSETLSLTCTVSGGSISSDFWGWIRQPPGKGLEWIGYISSRGSTNYNPSLKRRVTISVDTSRNQFSLKLSSVTAADTAVYYCARSAGATDFDFWGQGTLVTVSS
VL: DIQMTQSPSSVSASVGDRVTITCRASQGISSWLAWYQHKPGKAPKLLIYVASSLQSGVPSRFSGSGSGTDFTLTISSLQPEDFATYYCQQANSFPLTFGGGTKVEIK
notes: Fab
B9: ZAP122p2 Fab (Fab, V domains shown)
VH: QVQLQESGPGLVKPSETLSLTCTVSGGSISSDFWGWIRQPPGKGLEWIGYISSRGSTNYNPSLKRRVTISVDTSRNQFSLKLSSVTAADTAVYYCARSAGVTDFDFWGQGTLVTVSS
VL: DIQMTQSPSSVSASVGDRVTITCRASQGISSWLAWYQHKPGKAPKLLIYVASSLQSGVPSRFSGSGSGTDFTLTISSLQPEDFATYYCQQASSFPLTFGGGTKVEIK
notes: Fab
B10: ZAP122m19 Fab (Fab, V domains shown)
VH: QVQLQESGPGLVKPSETLSLTCTVSGGSISSDFWGWIRQPPGKGLEWIGYISSRGSTNYNPSLKRRVTISVDTSRNQFSLKLSSVTAADTAVYYCAASAGVTDFDFWGQGTLVTVSS
VL: DIQMTQSPSSVSASVGDRVTITCRASQGISSWLAWYQHKPGKAPKLLIYVASSLQSGVPSRFSGSGSGTDFTLTISSLQPEDFATYYCQQANSFPLTFGGGTKVEIK
notes: Fab
B11: ZAP122m26 Fab (Fab, V domains shown)
VH: QVQLQESGPGLVKPSETLSLTCTVSGGSISSDFWGWIRQPPGKGLEWIGYISSRGSTNYNPSLKRRVTISVDTSRNQFSLKLSSVTAADTAVYYCARSAGVTDFAFWGQGTLVTVSS
VL: DIQMTQSPSSVSASVGDRVTITCRASQGISSWLAWYQHKPGKAPKLLIYVASSLQSGVPSRFSGSGSGTDFTLTISSLQPEDFATYYCQQANSFPLTFGGGTKVEIK
notes: Fab
B12: ZAP122m25 Fab (Fab, V domains shown)
VH: QVQLQESGPGLVKPSETLSLTCTVSGGSISSDFWGWIRQPPGKGLEWIGYISSRGSTNYNPSLKRRVTISVDTSRNQFSLKLSSVTAADTAVYYCARSAGVTDADFWGQGTLVTVSS
VL: DIQMTQSPSSVSASVGDRVTITCRASQGISSWLAWYQHKPGKAPKLLIYVASSLQSGVPSRFSGSGSGTDFTLTISSLQPEDFATYYCQQANSFPLTFGGGTKVEIK
notes: Fab
B13: ZAP122m27 Fab (Fab, V domains shown)
VH: QVQLQESGPGLVKPSETLSLTCTVSGGSISSDFWGWIRQPPGKGLEWIGYISSRGSTNYNPSLKRRVTISVDTSRNQFSLKLSSVTAADTAVYYCARSAGVTDFDAWGQGTLVTVSS
VL: DIQMTQSPSSVSASVGDRVTITCRASQGISSWLAWYQHKPGKAPKLLIYVASSLQSGVPSRFSGSGSGTDFTLTISSLQPEDFATYYCQQANSFPLTFGGGTKVEIK
notes: Fab
B14: ZAP122m23 Fab (Fab, V domains shown)
VH: QVQLQESGPGLVKPSETLSLTCTVSGGSISSDFWGWIRQPPGKGLEWIGYISSRGSTNYNPSLKRRVTISVDTSRNQFSLKLSSVTAADTAVYYCARSAGVADFDFWGQGTLVTVSS
VL: DIQMTQSPSSVSASVGDRVTITCRASQGISSWLAWYQHKPGKAPKLLIYVASSLQSGVPSRFSGSGSGTDFTLTISSLQPEDFATYYCQQANSFPLTFGGGTKVEIK
notes: Fab

recombinant human IL-21 (rhIL-21), sequence (Q9HBE4 30-162 limits assumed): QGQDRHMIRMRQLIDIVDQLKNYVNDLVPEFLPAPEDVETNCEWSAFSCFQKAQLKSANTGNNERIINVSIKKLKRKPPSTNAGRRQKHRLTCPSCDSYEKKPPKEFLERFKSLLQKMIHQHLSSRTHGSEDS
T1 sequence (Q9HBE4 30-162): as the sequence (Q9HBE4 30-162 limits assumed) above

One test has as its target recombinant human IL-21 (rhIL-21) (human, UniProt Q9HBE4 30-162, limits assumed). Description: cell-based or functional assay.
Take B1: the “% pSTAT3+ Jurkat cells, 0.1 nM rhIL-21 + 0 nM antibody” value worked out at 82%; the “% pSTAT3+ Jurkat cells, 0.1 nM rhIL-21 + 0.1012 nM antibody” value amounted to 33.3%; the “% pSTAT3+ Jurkat cells, 0.1 nM rhIL-21 + 0.1602 nM antibody” value was 33.2%; the “% pSTAT3+ Jurkat cells, 0.1 nM rhIL-21 + 0.2536 nM antibody” value stood at 18.2%. For the same molecule, the “% pSTAT3+ Jurkat cells, 0.1 nM rhIL-21 + 0.4015 nM antibody” value amounted to 22.8%; the “% pSTAT3+ Jurkat cells, 0.1 nM rhIL-21 + 0.6355 nM antibody” value is 33%; the “% pSTAT3+ Jurkat cells, 0.1 nM rhIL-21 + 1.006 nM antibody” value was 10.8%; the “% pSTAT3+ Jurkat cells, 0.1 nM rhIL-21 + 1.5925 nM antibody” value turned out to be 9.01%. In addition, the “% pSTAT3+ Jurkat cells, 0.1 nM rhIL-21 + 2.5209 nM antibody” value amounted to 6.78%; the “% pSTAT3+ Jurkat cells, 0.1 nM rhIL-21 + 3.9906 nM antibody” value amounted to 5.32%; the “% pSTAT3+ Jurkat cells, 0.1 nM rhIL-21 + 6.3171 nM antibody” value is 8.64%; the “% pSTAT3+ Jurkat cells, 0.1 nM rhIL-21 + 10 nM antibody” value came to 6.63%.
In the case of B2, the “% pSTAT3+ Jurkat cells, 0.1 nM rhIL-21 + 0 nM antibody” value came to 82.1%; the “% pSTAT3+ Jurkat cells, 0.1 nM rhIL-21 + 0.1012 nM antibody” value stood at 81%; the “% pSTAT3+ Jurkat cells, 0.1 nM rhIL-21 + 0.1602 nM antibody” value is 72.4%; the “% pSTAT3+ Jurkat cells, 0.1 nM rhIL-21 + 0.2536 nM antibody” value was determined as 71.4%. The “% pSTAT3+ Jurkat cells, 0.1 nM rhIL-21 + 0.4015 nM antibody” value amounted to 71.5%; the “% pSTAT3+ Jurkat cells, 0.1 nM rhIL-21 + 0.6355 nM antibody” value turned out to be 65.6%; the “% pSTAT3+ Jurkat cells, 0.1 nM rhIL-21 + 1.006 nM antibody” value is 69.5%; the “% pSTAT3+ Jurkat cells, 0.1 nM rhIL-21 + 1.5925 nM antibody” value was 58.7%. For the same molecule, the “% pSTAT3+ Jurkat cells, 0.1 nM rhIL-21 + 2.5209 nM antibody” value was determined as 55.1%; the “% pSTAT3+ Jurkat cells, 0.1 nM rhIL-21 + 3.9906 nM antibody” value turned out to be 42%; the “% pSTAT3+ Jurkat cells, 0.1 nM rhIL-21 + 6.3171 nM antibody” value amounted to 44.5%; the “% pSTAT3+ Jurkat cells, 0.1 nM rhIL-21 + 10 nM antibody” value was determined as 41.1%.
As for B3, the “% pSTAT3+ Jurkat cells, 0.1 nM rhIL-21 + 0 nM antibody” value came to 82.5%; the “% pSTAT3+ Jurkat cells, 0.1 nM rhIL-21 + 0.1012 nM antibody” value came to 75.1%; the “% pSTAT3+ Jurkat cells, 0.1 nM rhIL-21 + 0.1602 nM antibody” value came out at 72.4%; the “% pSTAT3+ Jurkat cells, 0.1 nM rhIL-21 + 0.2536 nM antibody” value is 70.7%. Besides, the “% pSTAT3+ Jurkat cells, 0.1 nM rhIL-21 + 0.4015 nM antibody” value amounted to 69.9%; the “% pSTAT3+ Jurkat cells, 0.1 nM rhIL-21 + 0.6355 nM antibody” value was determined as 68.5%; the “% pSTAT3+ Jurkat cells, 0.1 nM rhIL-21 + 1.006 nM antibody” value was determined as 65.3%; the “% pSTAT3+ Jurkat cells, 0.1 nM rhIL-21 + 1.5925 nM antibody” value was 64.8%. The “% pSTAT3+ Jurkat cells, 0.1 nM rhIL-21 + 2.5209 nM antibody” value is 64.5%; the “% pSTAT3+ Jurkat cells, 0.1 nM rhIL-21 + 3.9906 nM antibody” value turned out to be 61.8%; the “% pSTAT3+ Jurkat cells, 0.1 nM rhIL-21 + 6.3171 nM antibody” value is 57.5%; the “% pSTAT3+ Jurkat cells, 0.1 nM rhIL-21 + 10 nM antibody” value was 57.5%.

Another test addresses T1, Recombinant hIL-21-Fc (AcroBiosystems) (human, UniProt Q9HBE4 30-162).
T1 construct: bought; also called rhIL-21; not shown: Fc of the bought reagent, not described
Description: SPR, Fab on captured rhIL-21-Fc.
As usually defined, the Kd is the constant that tells how readily two partners part at equilibrium. In general, koff refers to the rate constant with which the complex falls apart. Broadly, the kon is the second-order rate constant of association. Consider B4, for which the Kd turned out to be 0.0386 nM, the koff stood at 1.38e-05 s⁻¹ and the on-rate constant (kon) was 357000 M⁻¹ s⁻¹.
The like results for B5 were, in that order, 2.19 nM, 0.0011 s⁻¹ and 505000 M⁻¹ s⁻¹.
For B6, the Kd amounted to 0.0435 nM, the koff came out at 1.94e-05 s⁻¹ and the kon was found to be 446000 M⁻¹ s⁻¹.
For B7, the binding result is reported as “no binding”.
For the molecule B8, the dissociation constant Kd amounted to 8.73 nM, the koff turned out to be 0.0034 s⁻¹ and the kon is 389000 M⁻¹ s⁻¹.
B9: the Kd came out at 0.0328 nM, the koff turned out to be 1.14e-05 s⁻¹ and the kon is 348000 M⁻¹ s⁻¹.
As for B10, the Kd was 6.08 nM, the off-rate constant (koff) is 0.000775 s⁻¹ and the kon stood at 127000 M⁻¹ s⁻¹.
For B11 the same measures were 3.01 nM, 0.000701 s⁻¹ and 233000 M⁻¹ s⁻¹.
For B12 the same measures were 5.6 nM, 0.00059 s⁻¹ and 105000 M⁻¹ s⁻¹.
Consider B13, for which the Kd is less than 0.0242 nM, the koff is less than 1e-05 s⁻¹ and the kon was 414000 M⁻¹ s⁻¹.
With B14, the Kd is 0.137 nM, the koff is 3.29e-05 s⁻¹ and the kon turned out to be 240000 M⁻¹ s⁻¹.
